How the values were obtained:
HeLa Kyoto [1] = test: melting temperature (median over replicates), in situ; higher = more thermally stable
HeLa Kyoto [2] = test: thermal stability score vs G1/S (z-score of summed log2 fold changes over temperatures); higher = more thermally stable than in G1/S
[3] = cell cycle stage: early G1 (4.5 h after nocodazole release)
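For melting temperature (median over replicates), in situ in this document: HeLa Kyoto cells synchronized by double thymidine or nocodazole block, proteins quantified by TMT10plex mass spectrometry, three independent biological replicates.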
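For thermal stability score vs G1/S (z-score of summed log2 fold changes over temperatures) in this document: synchronized HeLa Kyoto cells, proteins quantified by TMT10plex mass spectrometry, three biological replicates, mitosis taken 0.5 h after nocodazole release, G1/S directly after double thymidine block.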

Chain of LDHAL6A (chain, as listed by the source): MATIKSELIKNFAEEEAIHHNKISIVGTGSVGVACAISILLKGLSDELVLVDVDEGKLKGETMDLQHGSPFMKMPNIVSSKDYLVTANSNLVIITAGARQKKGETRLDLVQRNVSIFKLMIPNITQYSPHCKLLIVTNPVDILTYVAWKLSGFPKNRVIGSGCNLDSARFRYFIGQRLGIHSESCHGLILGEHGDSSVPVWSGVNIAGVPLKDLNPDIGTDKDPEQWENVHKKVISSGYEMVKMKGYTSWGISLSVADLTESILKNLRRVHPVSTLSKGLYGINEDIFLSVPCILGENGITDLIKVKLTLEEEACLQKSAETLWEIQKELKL

Substance | melting temperature (HeLa Kyoto [1]; cell cycle stage: G1/S) | thermal stability score (HeLa Kyoto [2]; [3]) | thermal stability score (HeLa Kyoto [2]; cell cycle stage: mitosis) | melting temperature (HeLa Kyoto [1]; cell cycle stage: mitosis)
LDHAL6A | 61.6 °C | -1.33 | -1.23 | 
MAACRALKAVLVDLSGTLHIEDAAVPGAQEALKRLRGASVIIRFVTNTTKESKQDLLERLRKLEFDISEDEIFTSLTAARSLLERKQVRPMLLVDDRALPDFKGIQTSDPNAVVMGLAPEHFHYQILNQAFRLLLDGAPLIAIHKARYYKRKDGLALGPGPFVTALEYATDTKATVVGKPEKTFFLEALRGTGCEPEEAVMIGDDCRDDVGGAQDVGMLGILVKTGKYRASDEEKINPPPYLTCESFPHAVDHILQHLL [HDHD2] | 57.3 °C | -2.07 | -2.57 | 59 °C
MADVINVSVNLEAFSQAISAIQALRSSVSRVFDCLKDGMRNKETLEGREKAFIAHFQDNLHSVNRDLNELERLSNLVGKPSENHPLHNSGLLSLDPVQDKTPLYSQLLQAYKWSNKLQYHAGLASGLLNQQSLKRSANQMGVSAKRRPKAQPTTLVLPPQYVDDVISRIDRMFPEMSIHLSRPNGTSAMLLVTLGKVLKVIVVMRSLFIDRTIVKGYNENVYTEDGKLDIWSKSNYQVFQKVTDHATTALLHYQLPQMPDVVVRSFMTWLRSYIKLFQAPCQRCGKFLQDGLPPTWRDFRTLEAFHDTCRQ [MED27] | 48.5 °C | -0.132 | 0.247 | 
MAFSQVQCLDDNHVNWRSSESKPEFFYSEEQRLALEALVARGRDAFYEVLKRENIRDFLSELELKRILETIEVYDPGSEDPRGTGPSQGPEDNGVGDGEEASGADGVPIEAEPLPSLEYWPQKSDRSIPQLDLGWPDTIAYRGVTRASVYMQPPIDGQAHIKEVVRKMISQAQKVIAVVMDMFTDVDIFKDLLDAGFKRKVAVYIIVDESNVKYFLHMCERACMHLGHLKNLRVRSSGGTEFFTRSATKFKGALAQKFMFVDGDRAVCGSYSFTWSAARTDRNVISVLSGQVVEMFDRQFQELYLMSHSVSLKGIPMEKEPEPEPIVLPSVVPLVPAGTVAKKLVNPKYALVKAKSVDEIAKISSEKQEAKKPLGLKGPALAEHPGELPELLPPIHPGLLHLERANMFEYLPTWVEPDPEPGSDILGYINIIDPNIWNPQPSQMNRIKIRDTSQASAQHQLWKQSQDSRPRPEPCPPPEPSAPQDGVPAENGLPQGDPEPLPPVPKPRTVPVADVLARDSSDIGWVLELPKEEAPQNGTDHRLPRMAGPGHAPLQRQLSVTQDDPESLGVGLPNGLDGVEEEDDDDYVTLSDQDSHSGSSGRGPGPRRPSVASSVSEEYFEVREHSVPLRRRHSEQVANGPTPPPRRQLSAPHITRGTFVGPQGGSPWAQSRGREEADALKRMQAQRSTDKEAQGQQFHHHRVPASGTRDKDGFPGPPRYRSAADSVQSSTRNAGPAMAGPHHWQAKGGQVPRLLPDPGSPRLAQNARPMTDGRATEEHPSPFGIPYSKLSQSKHLKARTGGSQWASSDSKRRAQAPRDRKDP [FAM83G] | 51.3 °C | 1.03 | 0.873 | 
MAIAQLATEYVFSDFLLKEPTEPKFKGLRLELAVDKMVTCIAVGLPLLLISLAFAQEISIGTQISCFSPSSFSWRQAAFVDSYCWAAVQQKNSLQSESGNLPLWLHKFFPYILLLFAILLYLPPLFWRFAAAPHICSDLKFIMEELDKVYNRAIKAAKSARDLDMRDGACSVPGVTENLGQSLWEVSESHFKYPIVEQYLKTKKNSNNLIIKYISCRLLTLIIILLACIYLGYYFSLSSLSDEFVCSIKSGILRNDSTVPDQFQCKLIAVGIFQLLSVINLVVYVLLAPVVVYTLFVPFRQKTDVLKVYEILPTFDVLHFKSEGYNDLSLYNLFLEENISEVKSYKCLKVLENIKSSGQGIDPMLLLTNLGMIKMDVVDGKTPMSAEMREEQGNQTAELQGMNIDSETKANNGEKNARQRLLDSSC [PANX1] | 57.4 °C | -1.3 | -1.3 | 55.7 °C
MASASSGPSSSVGFSSFDPAVPSCTLSSAASGIKRPMASEVLEARQDSYISLVPYASGMPIKKIGHRSVDSSGETTYKKTTSSALKGAIQLGITHTVGSLSTKPERDVLMQDFYVVESIFFPSEGSNLTPAHHYNDFRFKTYAPVAFRYFRELFGIRPDDYLYSLCSEPLIELCSSGASGSLFYVSSDDEFIIKTVQHKEAEFLQKLLPGYYMNLNQNPRTLLPKFYGLYCVQAGGKNIRIVVMNNLLPRSVKMHIKYDLKGSTYKRRASQKEREKPLPTFKDLDFLQDIPDGLFLDADMYNALCKTLQRDCLVLQSFKIMDYSLLMSIHNIDHAQREPLSSETQYSVDTRRPAPQKALYSTAMESIQGEARRGGTMETDDHMGGIPARNSKGERLLLYIGIIDILQSYRFVKKLEHSWKALVHDGDTVSVHRPGFYAERFQRFMCNTVFKKIPLKPSPSKKFRSGSSFSRRAGSSGNSCITYQPSVSGEHKAQVTTKAEVEPGVHLGRPDVLPQTPPLEEISEGSPIPDPSFSPLVGETLQMLTTSTTLEKLEVAESEFTH [PIP5K1A] | 51.4 °C | 1.38 | 1.13 | 51.5 °C
MATKEKLQCLKDFHKDILKPSPGKSPGTRPEDEAEGKPPQREKWSSKIDFVLSVAGGFVGLGNVWRFPYLCYKNGGGAFLIPYFIFLFGSGLPVFFLEIIIGQYTSEGGITCWEKICPLFSGIGYASVVIVSLLNVYYIVILAWATYYLFQSFQKELPWAHCNHSWNTPHCMEDTMRKNKSVWITISSTNFTSPVIEFWERNVLSLSPGIDHPGSLKWDLALCLLLVWLVCFFCIWKGVRSTGKVVYFTATFPFAMLLVLLVRGLTLPGAGAGIKFYLYPDITRLEDPQVWIDAGTQIFFSYAICLGAMTSLGSYNKYKYNSYRDCMLLGCLNSGTSFVSGFAIFSILGFMAQEQGVDIADVAESGPGLAFIAYPKAVTMMPLPTFWSILFFIMLLLLGLDSQFVEVEGQITSLVDLYPSFLRKGYRREIFIAFVCSISYLLGLTMVTEGGMYVFQLFDYYAASGVCLLWVAFFECFVIAWIYGGDNLYDGIEDMIGYRPGPWMKYSWAVITPVLCVGCFIFSLVKYVPLTYNKTYVYPNWAIGLGWSLALSSMLCVPLVIVIRLCQTEGPFLVRVKYLLTPREPNRWAVEREGATPYNSRTVMNGALVKPTHIIVETMM [SLC6A6] | 57.6 °C | -2.77 | -2.51 | 57.2 °C
MAYHSGYGAHGSKHRARAAPDPPPLFDDTSGGYSSQPGGYPATGADVAFSVNHLLGDPMANVAMAYGSSIASHGKDMVHKELHRFVSVSKLKYFFAVDTAYVAKKLGLLVFPYTHQNWEVQYSRDAPLPPRQDLNAPDLYIPTMAFITYVLLAGMALGIQKRFSPEVLGLCASTALVWVVMEVLALLLGLYLATVRSDLSTFHLLAYSGYKYVGMILSVLTGLLFGSDGYYVALAWTSSALMYFIVRSLRTAALGPDSMGGPVPRQRLQLYLTLGAAAFQPLIIYWLTFHLVR [YIF1A] | 57.2 °C | -0.13 | -2.04 | 
MDLAANEISIYDKLSETVDLVRQTGHQCGMSEKAIEKFIRQLLEKNEPQRPPPQYPLLIVVYKVLATLGLILLTAYFVIQPFSPLAPEPVLSGAHTWRSLIHHIRLMSLPIAKKYMSENKGVPLHGGDEDRPFPDFDPWWTNDCEQNESEPIPANCTGCAQKHLKVMLLEDAPRKFERLHPLVIKTGKPLLEEEIQHFLCQYPEATEGFSEGFFAKWWRCFPERWFPFPYPWRRPLNRSQMLRELFPVFTHLPFPKDASLNKCSFLHPEPVVGSKMHKMPDLFIIGSGEAMLQLIPPFQCRRHCQSVAMPIEPGDIGYVDTTHWKVYVIARGVQPLVICDGTAFSEL [C6ORF89] | 53.2 °C | 0.0285 | -2.22 | 
MSEDEEKVKLRRLEPAIQKFIKIVIPTDLERLRKHQINIEKYQRCRIWDKLHEEHINAGRTVQQLRSNIREIEKLCLKVRKDDLVLLKRMIDPVKEEASAATAEFLQLHLESVEELKKQFNDEETLLQPPLTRSMTVGGAFHTTEAEASSQSLTQIYALPEIPQDQNAAESWETLEADLIELSQLVTDFSLLVNSQQEKIDSIADHVNSAAVNVEEGTKNLGKAAKYKLAALPVAGALIGGMVGGPIGLLAGFKVAGIAAALGGGVLGFTGGKLIQRKKQKMMEKLTSSCPDLPSQTDKKCS [STX17] |  | -0.17 | 0.13 | 
MSKMPAKKKSCFQITSVTTAQVATSITEDTESLDDPDESRTEDVSSEIFDVSRATDYGPEEVCERSSSEETLNNVGDAETPGTVSPNLLLDGQLAAAAAAPANGGGVVSARSVSGALASTLAAAATSAPAPGAPGGPQLAGSSAGPVTAAPSQPPTTCSSRFRVIKLDHGSGEPYRRGRWTCMEYYERDSDSSVLTRSGDCIRHSSTFDQTAERDSGLGATGGSVVVVVASMQGAHGPESGTDSSLTAVSQLPPSEKMSQPTPAQPQSFSVGQPQPPPPPVGGAVAQSSAPLPPFPGAATGPQPMMAAAQPSQPQGAGPGGQTLPPTNVTLAQPAMSLPPQPGPAVGAPAAQQPQQFAYPQPQIPPGHLLPVQPSGQSEYLQQHVAGLQPPSPAQPSSTGAAASPATAATLPVGTGQNASSVGAQLMGASSQPSEAMAPRTGPAQGGQVAPCQPTGVPPATVGGVVQPCLGPAGAGQPQSVPPPQMGGSGPLSAVPGGPHAVVPGVPNVPAAVPAPSVPSVSTTSVTMPNVPAPLAQSQQLSSHTPVSRSSSIIQHVGLPLAPGTHSAPTSLPQSDLSQFQTQTQPLVGQVDDTRRKSEPLPQPPLSLIAENKPVVKPPVADSLANPLQLTPMNSLATSVFSIAIPVDGDEDRNPSTAFYQAFHLNTLKESKSLWDSASGGGVVAIDNKIEQAMDLVKSHLMYAVREEVEVLKEQIKELVERNSLLERENALLKSLSSNDQLSQLPTQQANPGSTSQQQAVIAQPPQPTQPPQQPNVSSA [TSC22D2] |  | 0.461 | 0.468 | 
MTGEKIRSLRRDHKPSKEEGDLLEPGDEEAAAALGGTFTRSRIGKGGKACHKIFSNHHHRLQLKAAPASSNPPGAPALPLHNSSVTANSQSPALLAGTNPVAVVADGGSCPAHYPVHECVFKGDVRRLSSLIRTHNIGQKDNHGNTPLHLAVMLGNKECAHLLLAHNAPVKVKNAQGWSPLAEAISYGDRQMITALLRKLKQQSRESVEEKRPRLLKALKELGDFYLELHWDFQSWVPLLSRILPSDACKIYKQGINIRLDTTLIDFTDMKCQRGDLSFIFNGDAAPSESFVVLDNEQKVYQRIHHEESEMETEEEVDILMSSDIYSATLSTKSISFTRAQTGWLFREDKTERVGNFLADFYLVNGLVLESRKRREHLSEEDILRNKAIMESLSKGGNIMEQNFEPIRRQSLTPPPQNTITWEEYISAENGKAPHLGRELVCKESKKTFKATIAMSQEFPLGIELLLNVLEVVAPFKHFNKLREFVQMKLPPGFPVKLDIPVFPTITATVTFQEFRYDEFDGSIFTIPDDYKEDPSRFPDL [ANKRD13C] |  | -0.894 | -0.663 | 
MWAFSELPMPLLINLIVSLLGFVATVTLIPAFRGHFIAARLCGQDLNKTSRQQIPESQGVISGAVFLIILFCFIPFPFLNCFVKEQCKAFPHHEFVALIGALLAICCMIFLGFADDVLNLRWRHKLLLPTAASLPLLMVYFTNFGNTTIVVPKPFRPILGLHLDLGILYYVYMGLLAVFCTNAINILAGINGLEAGQSLVISASIIVFNLVELEGDCRDDHVFSLYFMIPFFFTTLGLLYHNWYPSRVFVGDTFCYFAGMTFAVVGILGHFSKTMLLFFMPQVFNFLYSLPQLLHIIPCPRHRIPRLNIKTGKLEMSYSKFKTKSLSFLGTFILKVAESLQLVTVHQSETEDGEFTECNNMTLINLLLKVLGPIHERNLTLLLLLLQILGSAITFSIRYQLVRLFYDV [DPAGT1] |  | -0.912 | -2.08 | 

From the supplement of paper PMC5998384
